We go through 2 molecules from patent US20210030857A1 (NGM BIOPHARMACEUTICALS, published 2021).

What all share (test): FACS on transfected Expi293 cells
In assay [1] the target is T1, human-mouse KLB chimeric protein (human KLB (M1-F508)-mouse KLB (P507-S1043)) on cells (human/mouse chimera, UniProt Q99N32 1-1043 (mouse entry)).
T1 construct: also called Human-Mouse chimeric KLB; chHuMo
The procedure: (§1) Studies were performed in order to localize the binding site on human KLB of anti-beta klotho antibodies in the 5H23 epitope bin, including 5H23 as described in Example 3, with sequences shown in Tables 1-10 and FIGS. 1-3, and human anti-beta klotho antibodies in the 5H23 epitope bin, such as humanized 5H23 antibodies (e.g., VH SEQ ID NO: 271 and VL SEQ ID NO: 276). For example, FACS-based binding assays for domain mapping were performed on Expi293 cells (Life Technologies, A14635) that were transiently transfected with plasmids encoding variants of KLB: human, mouse, cynomolgus, a chimeric version in which the KL1 domain sequence of mouse KLB (M1-F506) replaces the KL1 domain of human KLB (M1-F508) to create mouse-human KLB (SEQ ID NO: 376), and a second chimera in which the human KL1 sequence (M1-F508) replaces the KL1 domain of mouse KLB (M1-F506) to create human-mouse KLB (SEQ ID NO: 374). Additionally, the expression vector pYD7 harboring no KLB sequence was transfected as a negative control.
(§2) In some studies, binding of a purified sample of a humanized 5H23 antibody (e.g., VH SEQ ID NO: 271 and VL SEQ ID NO: 276) to KLB variants was determined by FACS analysis. […] After washing with PBS/1% BSA/0.1% azide, transfected cells were then co-incubated with labeled anti-human Fc (Jackson lmmunoresearch) for 30 minutes at 4° C. After washing with PBS/1% BSA/0.1% azide, cells were acquired on flow cytometer (FACS Calibur) and analyzed by cytometric software (FlowJo). To display the resulting data, graphs plotting the number of cells as a function of fluorescence intensity were generated, and the median fluorescence intensity (MFI) was determined for each sample as shown in Table 30.

The target in assay [2] is T2, human beta klotho expressed on cells (human, UniProt Q86Z14 1-1044).
T2 construct: also called HuKLB overexpressing cells; Human KLB
T2 sequence: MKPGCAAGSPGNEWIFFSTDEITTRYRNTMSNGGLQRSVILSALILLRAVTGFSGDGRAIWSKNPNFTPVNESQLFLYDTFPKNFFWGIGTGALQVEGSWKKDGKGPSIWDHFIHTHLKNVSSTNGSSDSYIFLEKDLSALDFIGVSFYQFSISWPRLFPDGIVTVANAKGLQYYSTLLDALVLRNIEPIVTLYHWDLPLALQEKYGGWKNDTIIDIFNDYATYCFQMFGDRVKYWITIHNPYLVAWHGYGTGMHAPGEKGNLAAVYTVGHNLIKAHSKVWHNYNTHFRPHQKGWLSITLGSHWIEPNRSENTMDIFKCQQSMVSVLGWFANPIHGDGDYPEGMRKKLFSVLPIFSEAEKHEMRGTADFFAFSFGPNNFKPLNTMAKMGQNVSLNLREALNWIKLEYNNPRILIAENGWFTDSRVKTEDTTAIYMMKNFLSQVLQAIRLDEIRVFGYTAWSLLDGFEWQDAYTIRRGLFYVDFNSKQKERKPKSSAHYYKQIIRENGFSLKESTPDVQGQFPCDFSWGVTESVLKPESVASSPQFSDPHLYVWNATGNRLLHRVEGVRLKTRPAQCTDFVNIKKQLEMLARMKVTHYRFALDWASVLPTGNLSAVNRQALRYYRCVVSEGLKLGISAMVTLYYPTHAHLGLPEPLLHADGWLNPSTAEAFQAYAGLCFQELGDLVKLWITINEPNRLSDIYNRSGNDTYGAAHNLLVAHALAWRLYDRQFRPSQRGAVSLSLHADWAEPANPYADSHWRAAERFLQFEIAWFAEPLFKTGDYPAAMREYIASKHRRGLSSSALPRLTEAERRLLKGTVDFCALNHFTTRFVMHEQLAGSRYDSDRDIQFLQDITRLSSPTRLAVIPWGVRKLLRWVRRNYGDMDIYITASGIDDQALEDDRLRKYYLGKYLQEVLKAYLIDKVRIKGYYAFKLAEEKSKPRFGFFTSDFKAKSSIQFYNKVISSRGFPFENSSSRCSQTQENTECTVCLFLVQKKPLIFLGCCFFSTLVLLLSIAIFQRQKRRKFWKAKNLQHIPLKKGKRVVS
How it is done:
as §1, §2

In assay [3] the target is T3, cynomolgus beta klotho expressed on cells (cynomolgus monkey (Macaca fascicularis), UniProt Q86Z14 1-1044 (human entry)).
T3 construct: also called Cynomolgus KLB
T3 chain: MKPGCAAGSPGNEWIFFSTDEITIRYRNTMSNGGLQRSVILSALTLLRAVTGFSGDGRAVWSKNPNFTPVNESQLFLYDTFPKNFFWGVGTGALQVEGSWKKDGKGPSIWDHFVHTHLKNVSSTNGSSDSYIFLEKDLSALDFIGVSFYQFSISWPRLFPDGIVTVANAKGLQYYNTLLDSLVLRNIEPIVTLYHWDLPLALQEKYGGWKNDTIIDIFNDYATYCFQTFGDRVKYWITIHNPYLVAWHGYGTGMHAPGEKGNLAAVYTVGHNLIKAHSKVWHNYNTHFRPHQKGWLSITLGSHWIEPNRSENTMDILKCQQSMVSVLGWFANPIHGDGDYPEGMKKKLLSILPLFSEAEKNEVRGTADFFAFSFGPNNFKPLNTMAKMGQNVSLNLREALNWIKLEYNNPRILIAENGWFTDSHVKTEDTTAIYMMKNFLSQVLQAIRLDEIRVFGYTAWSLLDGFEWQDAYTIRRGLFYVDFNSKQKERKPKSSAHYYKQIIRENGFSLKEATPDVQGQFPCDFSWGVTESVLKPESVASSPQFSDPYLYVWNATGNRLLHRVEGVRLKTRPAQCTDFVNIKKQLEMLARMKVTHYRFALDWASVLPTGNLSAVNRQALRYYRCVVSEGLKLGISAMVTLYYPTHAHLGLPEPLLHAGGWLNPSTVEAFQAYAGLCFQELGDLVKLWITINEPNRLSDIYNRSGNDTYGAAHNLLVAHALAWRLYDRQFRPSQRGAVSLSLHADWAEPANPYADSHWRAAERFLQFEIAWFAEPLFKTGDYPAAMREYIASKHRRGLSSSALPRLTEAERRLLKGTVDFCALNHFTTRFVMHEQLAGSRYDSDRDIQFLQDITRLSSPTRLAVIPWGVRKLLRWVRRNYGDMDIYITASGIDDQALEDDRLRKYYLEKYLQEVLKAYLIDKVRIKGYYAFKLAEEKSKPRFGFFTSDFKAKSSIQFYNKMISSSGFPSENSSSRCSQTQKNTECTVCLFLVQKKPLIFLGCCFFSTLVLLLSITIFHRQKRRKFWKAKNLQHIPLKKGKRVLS
How it is done:
as §1, §2

B1: humanized 5H23 antibody (VH SEQ ID NO: 271 and VL SEQ ID NO: 276) (antibody, V domains shown)
VH: QVQLQQSGAEVKKPGASVKVSCKASGYTFTSYDINWVRQAPGQGLEWIGWIYPGDGSTKYNEKFKGKATITRDTSASTAYMELSSLRSEDTAVYFCARSDYYGSRSFAYWGQGTLVTVSS
VL: DIVMTQSPDSLAVSLGERATINCRASKSVSTSGYVYMHWYQQKPGQPPKLLIYLASYLESGVPDRFSGSGSGTDFTLTISSVQAEDVAVYYCQHSRDLTFPFGGGTKLEIK
notes: also called h5H23; h5H23 (Prep 1)
B1: the binding result in assay [1] is recorded as “no binding (tested: 1 µg/ml)”.

B2: negative control antibody, anti-keyhole limpet hemocyanin (KLH) antibody (antibody, human IgG1, kappa, V domains shown)
VH: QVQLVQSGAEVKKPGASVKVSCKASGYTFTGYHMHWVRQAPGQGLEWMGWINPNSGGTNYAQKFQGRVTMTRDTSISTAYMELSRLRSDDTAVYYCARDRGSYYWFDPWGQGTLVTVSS
VL: DIQMTQSPSSLSASVGDRVTITCRASQGIRNDLGWYQQKPGKAPKRLIYAASSLQSGVPSRFSGSGSGTEFTLTISSLQPEDFATYYCLQHNSYPLTFGGGTKVEIKR
notes: also called Neg; Control; anti-KLH antibody
For B2, the binding result in assay [2] and in assay [3] was “no binding (tested: 1 µg/ml)” in each case.
